The record followed here is paper doi:10.1101/2025.11.10.687524 (bioRxiv, 2025).

Residue numbers refer to the chain shown, from its start. In names and notes the source's numbering stands.

Experiment [1] has as its target BamA(S274C/C690S/C700S) (disulfide-crosslinked SurA–BAM complex 1) (E. coli, UniProt P0A940 21-810, S274C | C690S | C700S). The experiment can be described thus: cryo-EM structure.
Experiment [2] concerns the target BamA(C690S/C700S) (disulfide-crosslinked SurA–BAM complex 2) (E. coli, UniProt P0A940 21-810, C690S | C700S). The experiment can be described thus: cryo-EM structure.

B1: SurA(N336C)-His10 (disulfide-crosslinked SurA–BAM complex 1) (natural protein)
chain: APQVVDKVAAVVNNGVVLESDVDGLMQSVKLNAAQARQQLPDDATLRHQIMERLIMDQIILQMGQKMGVKISDEQLDQAIANIAKQNNMTLDQMRSRLAYDGLNYNTYRNQIRKEMIISEVRNNEVRRRITILPQEVESLAQQVGNQNDASTELNLSHILIPLPENPTSDQVNEAESQARAIVDQARNGADFGKLAIAHSADQQALNGGQMGWGRIQELPGIFAQALSTAKKGDIVGPIRSGVGFHILKVNDLRGESKNISVTEVHARHILLKPSPIMTDEQARVKLEQIAADIKSGKTTFAAAAKEFSQDPGSACQGGDLGWATPDIFDPAFRDALTRLNKGQMSAPVHSSFGWHLIELLDTRNVDKTDAAQKDRAYRMLMNRKFSEEAASWMQEQRASAYVKILSN
Regarding B1, in experiment [1], the binding result is recorded as “binds”.

B2: SurA(I297C)-His10 (disulfide-crosslinked SurA–BAM complex 2) (natural protein)
chain: B1 chain with I277C, C316N
Turning to B2, in experiment [2], the binding result is listed as “binds”.
